Assay results reported in paper PMC6338969, “Aptamer Conformation Switching-Induced Two-Stage Amplification for Fluorescent Detection of Proteins”.

Experiments:
[1] = target: prostate-specific antigen (PSA) (UniProt P07288 25-261); test: molecular beacon fluorescence with amplification; 0.1 mg/mL PSA; Aptamer + protein 15 min at 37 °C, then NEB buffer (pH 7.9) with Klenow exo- buffer, 37 °C, 2 h; 1 uM aptamer, 1 uM beacon, 2.5 uM primer, 2 mM dNTPs, Klenow exo- and Nt.BbvCI 1 U/uL each; salt not stated; conditions: protein: commercial; Y-shaped complex with target
[2] = target: carcino-embryonic antigen (CEA) (UniProt P06731 35-685); test: molecular beacon fluorescence with amplification; 0.1 mg/mL CEA; Aptamer + protein 15 min at 37 °C, then NEB buffer (pH 7.9) with Klenow exo- buffer, 37 °C, 2 h; 1 uM aptamer, 1 uM beacon, 2.5 uM primer, 2 mM dNTPs, Klenow exo- and Nt.BbvCI 1 U/uL each; salt not stated; conditions: protein: commercial; Y-shaped complex with target
PDGF-BB = PDGF-BB (UniProt P01127 82-190); test: molecular beacon fluorescence with amplification; 1.0 ug/mL PDGF-BB; Aptamer + protein 15 min at 37 °C, then NEB buffer (pH 7.9) with Klenow exo- buffer, 37 °C, 2 h; 1 uM aptamer, 1 uM beacon, 2.5 uM primer, 2 mM dNTPs, Klenow exo- and Nt.BbvCI 1 U/uL each; salt not stated; conditions: protein: commercial; chain copies: 2
PDGF-BB, sequence (P01127 82-190): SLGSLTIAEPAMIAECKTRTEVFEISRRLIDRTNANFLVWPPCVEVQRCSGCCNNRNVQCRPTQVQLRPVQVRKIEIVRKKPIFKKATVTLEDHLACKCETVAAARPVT

carcino-embryonic antigen (CEA), sequence (P06731 35-685): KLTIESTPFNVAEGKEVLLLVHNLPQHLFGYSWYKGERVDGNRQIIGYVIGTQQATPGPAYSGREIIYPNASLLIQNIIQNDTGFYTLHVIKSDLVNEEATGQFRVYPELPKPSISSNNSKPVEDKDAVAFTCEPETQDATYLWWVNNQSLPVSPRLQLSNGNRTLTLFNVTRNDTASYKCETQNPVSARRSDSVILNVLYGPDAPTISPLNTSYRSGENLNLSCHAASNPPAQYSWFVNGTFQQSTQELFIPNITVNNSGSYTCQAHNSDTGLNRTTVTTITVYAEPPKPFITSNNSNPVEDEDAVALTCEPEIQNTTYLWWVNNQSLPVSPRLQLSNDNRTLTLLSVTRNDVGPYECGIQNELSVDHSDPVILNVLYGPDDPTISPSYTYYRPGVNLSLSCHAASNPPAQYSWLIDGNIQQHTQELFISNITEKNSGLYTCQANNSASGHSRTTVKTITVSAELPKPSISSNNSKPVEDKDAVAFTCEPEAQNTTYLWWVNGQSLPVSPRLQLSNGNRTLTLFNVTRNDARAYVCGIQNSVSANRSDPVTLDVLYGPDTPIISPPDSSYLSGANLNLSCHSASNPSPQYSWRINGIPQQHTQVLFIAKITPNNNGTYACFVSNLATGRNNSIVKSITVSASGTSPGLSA
prostate-specific antigen (PSA), sequence (P07288 25-261): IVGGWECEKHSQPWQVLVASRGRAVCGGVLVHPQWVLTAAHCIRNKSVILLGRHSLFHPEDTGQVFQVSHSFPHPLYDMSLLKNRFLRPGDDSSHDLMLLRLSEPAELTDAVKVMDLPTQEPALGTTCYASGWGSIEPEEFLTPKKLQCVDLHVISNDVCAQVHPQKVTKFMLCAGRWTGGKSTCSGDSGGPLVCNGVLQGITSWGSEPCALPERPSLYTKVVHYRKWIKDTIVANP

Row | Binder | binding result [1] | binding result [2] | binding result (PDGF-BB)
1 | PDGF-BB DNA aptamer (switch) (structured_DNA) DNA: TGCACCTCAGCAGCAGGCTACGGCACGTAGAGCATCACCATGATCCTGCATCCGAGCAGGAACG | no binding | no binding | –
2 | Control DNA aptamer (ssDNA) DNA: TGCACCTCAGCATTTCCGTGGTAGGGCAGGTTGGGGTGATTTCTATTCAATCCGAGCAGGAACG | – | – | no binding
